Like-named read-outs stand apart in the source and are kept apart here. Ends that are not written are not given here.
B1: talin-F3 (His-tagged, pull-down) (domain or fragment, mouse, UniProt P26039 309-405, looked up)
chain: GVSFFLVKEKMKGKNKLVPRLLGITKECVMRVDEKTKEVIQEWSLTNIKRWAASPKSFTLDFGDYQDGYYSVQTTEGEQIAQLIAGYIDIILKKKKS
B2: talin-R9 (domain or fragment, mouse, UniProt P26039 1654-1848, looked up)
chain: KAPGQLECETAIAALNSCLRDLDQASLAAVSQQLAPREGISQEALHTQMLTAVQEISHLIEPLASAARAEASQLGHKVSQMAQYFEPLTLAAVGAASKTLSHPQQMALLDQTKTLAESALQLLYTAKEAGGNPKQAAHTQEALEEAVQMMTEAVEDLTTTLNEAASAAGVVGGMVDSITQAINQLDEGPMGDPEG

Assays:
[1] = biological target: T1, talin-F2F3 (mouse, UniProt P26039 206-405); experiment: NMR titration
[2] = biological target: talin-F3 (mouse, UniProt P26039 309-405); experiment: NMR titration
[3] = biological target: B1; experiment: pull-down
[4] = biological target: talin-R9 (pull-down competitor) (mouse, UniProt P26039 1654-1848); experiment: pull-down
[5] = biological target: T1, talin-F2F3; experiment: NMR titration; remark: listed apart in the source

DIDQMFSTLLGEMDLLTQSLGVDT (peptide, UniProt Q7Z5R6 7-30, looked up) [RIAM-N]
binding result [1]: binds
binding result [2]: binds

KKKITIHDRKEFAKFEEERARAKWDTANNPLYKEATSTFTNITYRGT (peptide, UniProt P05106 742-788, looked up) [integrin β3 CT (716–762) L717K/L718K]
binding result [2]: binds

KKKITIHDRKEFAKFEEERARAKWDTANNPLYKEATSTFTNITYRGT (peptide, UniProt P05106 742-788, looked up, also: His-tagged) [integrin β3 CT (716–762) L717K/L718K (His-tagged, pull-down)]
binding result [3]: binds

B1
binding result [4]: binds

B2
binding result [5]: binds

Reference: article PMC4432866 (Nature communications, 2014)
